According to patent publication US20230049752A1 (University of California, published 2023):

How the values were obtained:
[1] = molecular target: human Claudin-6 (CLDN6) (human) (UniProt P56747); assay: FACS titration of labelled mAb on HEK293T-CLDN6-mGFP cells
[2] = molecular target: human Claudin-6 (CLDN6) (human) (UniProt P56747); assay: FACS titration of labelled mAb on ARK2 cells (endogenous CLDN6+)
[3] = molecular target: CLDN3/4 (endogenous on LS513 or MCF7 cells); assay: FACS titration of labelled mAb on MCF7 cells (endogenous CLDN3/4+)
[4] = molecular target: CLDN3/4 (endogenous on LS513 or MCF7 cells); assay: FACS titration of labelled mAb on LS513 cells (endogenous CLDN3/4+)
[5] = molecular target: human Claudin-6 (CLDN6) (human) (UniProt P56747); assay: FACS titration of labelled mAb on OVCA429 cells (endogenous CLDN6+)
[6] = molecular target: human Claudin-6 (CLDN6) (human) (UniProt P56747); assay: FACS, 0.3 ug Ab, ARK2 cells (2nd Ab only 1351.21)
[7] = molecular target: human Claudin-6 (CLDN6) (human) (UniProt P56747); assay: FACS, 1.5 ug Ab, ARK2 cells (2nd Ab only 1351.21)
[8] = molecular target: human Claudin-6 (CLDN6) (human) (UniProt P56747); assay: FACS, 1.5 ug Ab, OVCA429 cells (2nd Ab only 885.77)
[9] = molecular target: human Claudin-6 (CLDN6) (human) (UniProt P56747); assay: FACS, 0.3 ug Ab, 293T clone expressing human CLDN6 (2nd Ab only 768.07)
[10] = molecular target: human Claudin-6 (CLDN6) (human) (UniProt P56747); assay: FACS, 1.5 ug Ab, 293T clone expressing human CLDN6 (2nd Ab only 768.07)
mouse Claudin-6 (CLDN6) = molecular target: T1, mouse Claudin-6 (CLDN6) (mouse, UniProt Q9Z262 1-219); assay: FACS, 293T clone expressing mouse CLDN6, dose not stated (2nd Ab only 1061.72)
T1 construct: whole, on cells; GFP fusion on engineered HEK293T cells; also called Mouse CLDN6; murine CLDN6
T1 sequence (looked up): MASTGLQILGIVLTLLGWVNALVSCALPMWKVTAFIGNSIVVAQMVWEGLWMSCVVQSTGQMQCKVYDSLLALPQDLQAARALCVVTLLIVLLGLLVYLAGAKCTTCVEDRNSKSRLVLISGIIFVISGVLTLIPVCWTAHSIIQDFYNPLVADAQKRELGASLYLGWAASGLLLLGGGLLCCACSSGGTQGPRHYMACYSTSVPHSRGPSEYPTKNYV
Procedure: Two doses (1.5 μg or 0.3 μg) of the humanized antibodies were tested for binding to either human CLDN6 or murine CLDN6 which proteins were expressed by engineered 293T clones.

| Binder | EC50 [1] [µM] | EC50 [2] [nM] | EC50 [3] [µM] | EC50 [4] [µM] | EC50 [5] [nM] | FACS fluorescence [6] | FACS fluorescence [7] | FACS fluorescence [8] | FACS fluorescence [9] | FACS fluorescence [10] | FACS fluorescence (mouse Claudin-6 (CLDN6)) |
| --- | --- | --- | --- | --- | --- | --- | --- | --- | --- | --- | --- |
| AB9 (antibody, V domains shown) VH: EVQLQQSGPELVKPGASVKMSCKASGYRFTDYNMHWVKQSHGKSLEWIGYINPNNGGTNYNQNFKGKATLTVNKSSSTAYMELRSLTSEDSAAYYCARDYLYFFDCWGQGTTLTVSS VL: DIQMTQSPASQSASLGESVTITCLASQTIGTWLAWYQQKPGKSPQLLIYAAASLADGVPSRFSGSGSGTRFSFKISSLQAEDFVSYYCQQLYSIPRTFGGGTKLEIK | 2.67 | 1140 | 5 | 1.04 | 1160 |  |  |  |  |  |  |
| AB4-5 (antibody, V domains shown, humanized) VH: QVQLVQSGAEVKKPGASVKMSCKASGYTFTSYTMHWIRQAPGQGQEWIGYINPSSTYTHYAQKFQGRATLTADTSTSTAYMELSSLRSEDTAVYYCSRGELGGFAYWGQGTLVTVSS VL: DVVMTQSPLSLPVTLGQPASISCRSSQSLVHSDGNTYLNWYQQRPGQSPRLLIYKVSNRFSGVPDRFSGSGSGTDFTLKISRVEAEDVGVYYCSQSTHVPYTFGQGTKLEIK |  |  |  |  |  | 967 | 1200 | 1350 | 16800 | 43400 | 2000 |
| AB9-4 (antibody, V domains shown, humanized) VH: QVQLVQSGAEVKKPGASVKMSCKASGYRFTDYNMHWVRQAPGQGLEWIGYINPNNGGTNYAQKFQGRATLTVDTSTSTAYMELSSLRSEDTAVYYCARDYLYFFDCWGQGTLLTVSS VL: DIQMTQSPSSLSASVGDRVTITCRASQTIGTWLAWYQQKPGKAPKLLIYAAASLADGVPSRFSGSGSGTDFTFTISSLQPEDFVTYYCQQLYSIPRTFGQGTKLEIK |  |  |  |  |  | 1120 | 1550 | 1110 | 15300 | 34300 | 1710 |
| AB11-2 (antibody, V domains shown, humanized) VH: EVQLVESGGGLVQPGGSLRLSCAASGFTFSSFGMHWVRQAPGKGLEWVAYISSDSRTIYYADSVKGRFTISRDNAKNSLYLQMNSLRAEDTAVYYCARDYGRTYEAYWGQGTLVTVSS VL: DIVMTQSPDSLAVSLGERATINCRASKSVSTSGYSYIHWYQQKPGQPPKLLIYLASNLESGVPDRFSGSGSGTDFTLTISSLQAEDVAVYYCQHSRELPLTFGQGTKLEIK |  |  |  |  |  | 1400 | 1940 | 2690 | 1290 | 2560 | 7160 |
| AB1-6 (antibody, V domains shown, humanized) VH: QVQLVQSGAEVKKPGASVKMSCKASGYTFTTYTMHWVRQAPGQGLEWIGFINPSSGYTDYAQKFQGRVTLTADTSTSTVYMELSSLRSEDTAVYYCANGDYYVAYWGQGTLVTVSS VL: DIQMTQSPSSLSASVGDRVTITCTASSSVSSTYFHWYQQKPGKAPKLLIYSTSNLASGVPSRFSGSGSGTDYTLTISSLQPEDFATYYCHQYHRSPLTFGQGTKLEIK | 5 | 5000 | 5 | 5 | 5000 | 2820 | 7740 | 29900 | 120000 | 227000 | 77600 |

Next, values leading:

| EC50 [1] [µM] | EC50 [2] [nM] | EC50 [3] [µM] | EC50 [4] [µM] | EC50 [5] [nM] | FACS fluorescence [6] | FACS fluorescence [7] | FACS fluorescence [8] | FACS fluorescence [9] | FACS fluorescence [10] | FACS fluorescence (mouse Claudin-6 (CLDN6)) | Binder |
| --- | --- | --- | --- | --- | --- | --- | --- | --- | --- | --- | --- |
| 5 | 1350 | 5 | 5 | 2440 |  |  |  |  |  |  | AB18 (antibody, V domains shown) VH: QVQLKQSGPELEKPGASVKISCKASGYSFTGYNMNWVKQSNGKSLEWIGNIDPYYGGSTYNQKFTGKATLTVDKSSSTAYMQLKSLTSEDSAVYYCARERSGYVFSAMDYWGQGTSVTVSS VL: NIMMTQSPSSLAVSAGEKVTMSCKSSQSVLFSSNQKNYLAWYQQKPGQSPRLLIYWASTRESGVPDRFTGSGSGTDFTLTISNVQAEDLAVYYCHQYLSSRTFGAGTKLELK |
| 5 | 5000 | 5 | 5 | 5000 |  |  |  |  |  |  | AB19 (antibody, V domains shown) VH: EVQLQQSGPELVKPGGSMKISCKASGYSFTGYTMNWVKRSHGKNLEWIGLINPYNGVTTYNQNFKGKATLAVDKSSSTAYMELLGLTSEDSAVYYCTRDPLYYGYRDSTMDYWGQGTSVTVSS VL: NIMMTQSPSSLAVSAGEKVTMSCKSSQSVLFSSNQKNYLAWYQQKPGQSPRLLIYWASTRESGVPDRFTGSGSGTDFTLTISNVQAEDLAVYYCHQYLSSRTFGAGTKLELK |
|  |  |  |  |  | 1320 | 1260 | 2440 | 1670 | 3490 | 5490 | AB11-chim (antibody, V domains shown) VH: DVQLVESGGGLVQPRGSRKLSCAASGFTFSSFGMHWVRQAPEKGLEWVAYISSDSRTIYYADTVKGRFTISRDNPTNTLFLQMTSLRSEDTAMYYCARDYGRTYEAYWGQGTLVTVSA VL: DIVLTQSPASLAVSLGQRATISCRASKSVSTSGYSYIHWYQQKPGQPPKLLIYLASNLESGVPARFSGSGSGTDFTLNIHPVEEEDAATYYCQHSRELPLTFGAGTKLELK |
|  |  |  |  |  | 1320 | 1540 | 2200 | 1010 | 2360 | 5520 | AB11-3 (antibody, V domains shown, humanized) VH: EVQLVESGGGLVQPGGSLRLSCAASGFTFSSFGMHWVRQAPGKGLEWVAYISSDSRTIYYADSVKGRFTISRDNAKNSLYLQMNSLRAEDTAVYYCARDYGRTYEAYWGQGTLVTVSS VL: DIVLTQSPDSLAVSLGERATINCRASKSVSTSGYSYIHWYQQKPGQPPKLLIYLASNLESGVPDRFSGSGSGTDFTLTISSVQAEDVAVYYCQHSRELPLTFGQGTKLELK |
| 5 | 1150 | 5 | 1.59 | 2290 |  |  |  |  |  |  | AB13 (antibody, V domains shown) VH: QVQLQQSGAELVRPGTSVKVSCKASGYAFSNYLIEWVKQRPGQGLEWIGVINPGSGGTNYNEKFKGKATMTADKSSSTAYMHLSNLTSEDSVVYFCARSYFGRSYPYTMDYWGQGTSVTVSS VL: EIVLTQSPTTMAASPGEKITITCSASSSISSNYLHWYQQKPGFSPKLLIYRTSNLASGVPARFSGSGSGTSYSLTIGTMEAEDVATYYCQQGSSIPLTFGAGTKLELK |
| 5 | 1300 | 0.546 | 1.16 | 1660 |  |  |  |  |  |  | AB14 (antibody, V domains shown) VH: QVQLQQSGPELVRPGVSVKISCKGSGYTFTDYAMHWVKQSHAKSLEWIGVISTYSGNTNYNQKFQDKATMTVDKSSSTAYMALARLTSDDSAIYYCARRGDYSLYAMDYWGQGTSVTVSS VL: DIVLTQSPASLAVSLGQRATISCKASQSVDYDGDNYVNWYQQKVGQPPKLLISAASNLESGIPARFSGSGSGTDFTLNIHPVEEEDAATYYCQQSNEDPFTFGSGTKLEIK |
| 2.65 | 5000 | 5 | 5 | 5000 |  |  |  |  |  |  | AB17 (antibody, V domains shown) VH: QVQLQQSGAELAKPGASVKMSCKASGYTFTGYWMHWVKQRPGQGLEWLGYINPSTGYTESNQKFKDKATLTADKSSTTAYMQLRSLTPEDSAVYYCAREGITTVLVDYWGQGTTLTVSS VL: QIVLTQSPAIMSASLGERVTMTCTASSSVSSSYLHWYQQKPGSSPKLWIYSTSNLASGVPARFSGSGSGTSYSLTISSMEAEDAATYYCHQYHRSPPTFGAGTKLELK |
